From patent US7033593

Assays:
[1] = molecular target: soluble HIV 89.6 gp140 envelope protein (cleaved gp140 preparation) (HIV 89.6 (Clade B) primary isolate), Q73372; test: SPR, peptide over directly immobilised 89.6 gp140, no CD4
[2] = molecular target: T1, CD4-gp140 complex (HIV 89.6 gp140 bound to sCD4) (HIV 89.6 (Clade B) primary isolate), Q73372; test: SPR (FIG. 10D); the legend of the same figure prints 280 nM
[3] = molecular target: T1, CD4-gp140 complex (HIV 89.6 gp140 bound …); test: SPR, peptide over gp140 captured on immobilised CD4
[4] = molecular target: T2, CD4-gp140-D1 complex (HIV 89.6 gp140 bound to sCD4 and the CCR5-D1 peptide) (HIV 89.6 (Clade B) primary isolate; human), Q73372; test: SPR, RU bound at steady state, row CD4+gp140+R5-D1 (89.6 gp140)
[5] = molecular target: T2, CD4-gp140-D1 complex (HIV 89.6 gp140 …); test: SPR, row CD4+gp140+R5-D1 (89.6 gp140); column headed Ka
[6] = molecular target: T1, CD4-gp140 complex (HIV 89.6 gp140 bound …); test: SPR, row CD4+gp140 (89.6 gp140)
[7] = molecular target: T1, CD4-gp140 complex (HIV 89.6 gp140 bound …); test: SPR, RU bound at steady state, row CD4+gp140 (89.6 gp140)
[8] = molecular target: T1, CD4-gp140 complex (HIV 89.6 gp140 bound …); test: SPR, row CD4+gp140 (89.6 gp140); column headed Kd s-1
[9] = molecular target: CD4-gp120 complex (HIV 89.6 gp120 bound to sCD4) (HIV 89.6 (Clade B) primary isolate), Q73372; test: SPR, row CD4-gp120
[10] = molecular target: T1, CD4-gp140 complex (HIV 89.6 gp140 bound …); test: SPR, row CD4+gp140 (89.6 gp140); column headed Ka
[11] = molecular target: T2, CD4-gp140-D1 complex (HIV 89.6 gp140 …); test: SPR, row CD4+gp140+R5-D1 (89.6 gp140)
[12] = molecular target: T1, CD4-gp140 complex (HIV 89.6 gp140 bound …); test: SPR, row CD4-gp140
[13] = molecular target: T2, CD4-gp140-D1 complex (HIV 89.6 gp140 …); test: SPR, row CD4+gp140+R5-D1 (89.6 gp140); column headed Kd s-1

B1: CCR5-D1 peptide (peptide)
peptide: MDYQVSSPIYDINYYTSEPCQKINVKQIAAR
modifications: not checked
B1 showed a Kd [1] of 1000 nM, a koff [1] of 0.01 s⁻¹ and a Kd [2] of 280 nM. For the same binder, the Kd [3] was 280 nM, the koff [3] was 0.00256 s⁻¹ and the kon [3] was 9000 M⁻¹ s⁻¹.

B2: HR-2 peptide T649Q26L (peptide)
peptide: WMEWDREINNYTSLIHSLIEESQNQLEKNEQELLEL
modifications: not checked
With B2 the Rm [4] was 64 RU, the kon [5] was 5100 M⁻¹ s⁻¹ and the Kd [6] was 2400 nM. For the same binder, the t1/2 [6] was 0.8 min, the Rm [7] was 53 RU and the koff [8] was 0.0146 s⁻¹. It also gave a Kd [9] of 2540 nM, a koff [9] of 0.0032 s⁻¹ and a kon [9] of 1260 M⁻¹ s⁻¹. The t1/2 [9] was 3.62 min, the kon [10] was 6200 M⁻¹ s⁻¹ and the Kd [11] was 1000 nM. The t1/2 [11] was 2.18 min, the Kd [12] was 1200 nM and the koff [12] was 0.0011 s⁻¹. It also gave a kon [12] of 880 M⁻¹ s⁻¹, a t1/2 [12] of 10.5 min and a koff [13] of 0.0053 s⁻¹.
